According to the supplement of paper PMC9170038:

System: MS2 coat protein
Assay: apparent KD of MS2 coat protein; designed switch direction (-1 OFF switch, 1 ON switch): -1; higher = weaker reporter binding
In short: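 The apparent KD reported per design is the median over clusters of curve fits to normalised cluster fluorescence. The RNA switches were transcribed on Illumina chips by stalled E. coli RNA polymerase. SNAP-549-labelled MS2 coat protein was titrated from 0.7 or 1.5 nM, doubling up to 3 µM, in Tris-HCl pH 7.5 buffer containing KCl, MgCl2, BSA, DTT, tRNA and Tween-20, with no input, 200 uM small-molecule ligand, or an oligonucleotide input.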

[1] = input ligand: microRNA oligo, concentration not stated
[2] = Eterna round: R95, input ligand: FMN 200 uM
[3] = Eterna round: R95, input ligand: microRNA oligo, concentration not stated
[4] = Eterna round: R95, input ligand: none

Sequence	apparent KD of MS2 coat protein (input ligand: FMN 200 uM)	apparent KD of MS2 coat protein (input ligand: none)	apparent KD of MS2 coat protein [3]	further results
AAGGGUGCUUUCAGAACGACAUGAGGAUCACCCAUGUAGACUGAGGAUAUCUACUCCUAAGGACGGGAGAAGGCAGUGUAAUGC [Ex NG3 #65] (Eterna round: R96, puzzle: Exclusion NG 3)	19.5 nM	21.7 nM		apparent KD of MS2 coat protein [1]: 14.2 nM
AAGUACCGUCACGAUAGUGAUGGUACAACAGGCAGUGAAACAUGAGGAUCACCCAUGUCCUCAAUUGCUCGUCUUAU [Sensor 3 - 77] (puzzle: Sensor v3, turn-off variant 2)			192 nM	apparent KD of MS2 coat protein [2]: 77.6 nM; apparent KD of MS2 coat protein [4]: 98.7 nM
AAGUAGACGGUGAGGAUAUAGGUCGAAUGACCGAUUUAGAAGGUACAUGAGGAUCACCCAUGUGGGUAACGUCG [Brourd's EX4 #29] (Eterna round: R97, puzzle: Brourd's mod of Exclusion 4)	56.5 nM	107 nM		
AAGUAUAGAGGAUAUAGUGAGUACUACAUGAGGAUCACCCAUGUUCUUCAUUACGUAUUUCUAGAAGGCUGAUAAA [EX-5 Malc#24] (puzzle: Exclusion 5)			261 nM	apparent KD of MS2 coat protein [2]: 611 nM; apparent KD of MS2 coat protein [4]: 289 nM
AAGUCGACGGUGAGGAUAUAGGUCGAACGACAGAUCUAGAAGGUACAUGAGGAUCACCCAUGUGGGUAACGUCG [Brourd's EX4 #35] (Eterna round: R97, puzzle: Brourd's mod of Exclusion 4)	36.8 nM	32.4 nM		
AAGUCGACGGUGAGGAUAUAGGUCGAACGACCGAUCUAGAAGGCACAUGAGGAUCACCCAUGUGGGUAACGUCG [Brourd's EX4 #33] (Eterna round: R97, puzzle: Brourd's mod of Exclusion 4)	29 nM	22.3 nM		
AAUAAAACAUAGGAUAUCGAAUUUAUUAUUUAACGAGAAGGAUGAACAUGAGGAUCACCCAUGUGGUAUCAUGG [Mat - Exclusion 6 - JL Mod - D24] (puzzle: Exclusion 6)			190 nM	apparent KD of MS2 coat protein [2]: 258 nM; apparent KD of MS2 coat protein [4]: 207 nM
AAUAACAAGCAGAUCCUAAACAUGAGGAUCACCCAUGUGCGCGUCUUGUAAAGUACUAUCACGAAAGUGAUAGUACA (Eterna round: R97, puzzle: Sensor, turn-off variant 1)	190 nM	133 nM		
AAUAACAAGCCGAUCCUUCACAUGAGGAUCACCCAUGUGCUCGUCUUGUAAAGUACUAUCACGAAAGUGAUAGUACA (Eterna round: R97, puzzle: Sensor, turn-off variant 1)	22.6 nM	19.9 nM		
AAUAACAGAGGAUAUACUGUUUUAUGUGUUUAUUGUUUUAAACAUGAGGAUCACCCAUGUAGAAGGCUGAAUGA [JMF 58] (puzzle: Exclusion 2)			36.4 nM	
AAUAACAGAGGAUAUACUGUUUUAUGUGUUUAUUGUUUUGAACAUGAGGAUCACCCAUGUAGAAGGCUGAGUAA [JMF 39] (puzzle: Exclusion 2)			24.5 nM	
AAUAACAGAGGAUAUACUGUUUUAUGUGUUUGUUAUUUUGAACAUGAGGAUCACCCAUGUAGAAGGCUGAGUAA [JMF 37] (puzzle: Exclusion 2)			23.6 nM	
AAUAACAGAGGAUAUACUGUUUUAUGUGUUUGUUGUUUUGAACAUGAGGAUCACCCAUGUAGAAGGCUGAUUAA [JMF 53] (Eterna round: R96, puzzle: Exclusion 2)	38.4 nM	38.5 nM		apparent KD of MS2 coat protein [1]: 31 nM
AAUAACAGAGGAUAUACUGUUUUAUGUGUUUGUUGUUUUGAACAUGAGGAUCACCCAUGUAGAAGGCUGAUUAA [JMF 53] (puzzle: Exclusion 2)			31.6 nM	
AAUAACAGGCCGAUCCUAAACAUGAGGAUCACCCAUGUGCGCGUCUUGUAAAGUACUAUCACGAAAGUGAUAGUACA [Sensor v3, turn-off variant 1 (MOD of Eli's v1-59 v.3)] (puzzle: Sensor v3, turn-off variant 1)			37.1 nM	apparent KD of MS2 coat protein [2]: 41.8 nM; apparent KD of MS2 coat protein [4]: 43.7 nM
AAUAAGGUAGGAUAUACAUGAGGAUCACCCAUGUCCCACCCGUUACCUAUGACCAUAUGUAGAAGGACCAAUAA [Exy#1] (Eterna round: R97, puzzle: Exclusion 3)	20 nM	21.3 nM		
AAUAAUAAUGUGAGGAUAUCUAGAGCUUCGGCUCUAGAGAAGGCACAUGAGGAUCACCCAUGUCUCAAUAAUAA [BmEx4/2-E4] (Eterna round: R97, puzzle: Brourd's mod of Exclusion 4)	263 nM	53.4 nM		
AAUAAUCAUGUAGGAUAUGCGUGGCAAAGCUAUGCAGAAGGACAUGAGGAUCACCCAUGUUCUAGCGUCUGAGAACAGAUGCUA [Mat - Exclusion NG 1 - Mod of JL - D82] (Eterna round: R96, puzzle: Exclusion NG 1)	384 nM	41.5 nM		apparent KD of MS2 coat protein [1]: 30.2 nM

Sequence	apparent KD of MS2 coat protein (input ligand: FMN 200 uM)	apparent KD of MS2 coat protein (input ligand: none)	apparent KD of MS2 coat protein [3]	further results
AAUAAUCAUGUAGGAUAUGCGUGGCAAAGCUAUGCAGAAGGACAUGAGGAUCACCCAUGUUCUAGCGUCUGAGUACAGAUGCUA [Mat - Exclusion NG 1 - Mod of JL - D81] (Eterna round: R96, puzzle: Exclusion NG 1)	399 nM	47.4 nM		apparent KD of MS2 coat protein [1]: 32.1 nM
AAUAAUCGGGCCUUCCUAUUACAUGAGGAUCACCCAUGUCUCGAGGAUAUACCGACGCACGGUCCGUAGAAGGCGAGACCACAC [Esusbied] (Eterna round: R96, puzzle: Exclusion NG 3)	141 nM	24.7 nM		apparent KD of MS2 coat protein [1]: 14.5 nM
AAUAAUGAUAAGGAUAUCACUAGCUUCGGCUAGUGAGAAGGUAUCACAUGAGGAUCACCCAUGUGUUCCAAUAA [Ex6/6-A1] (Eterna round: R97, puzzle: Exclusion 6)	38.1 nM	18 nM		
AAUACAAGCUAUUGAUCCCACAUGAGGAUCACCCAUGUAGCUGGCCGUGAGACCAGCUUUACAAUAGCUCGUCUUAU [Sensor-V1 #49] (Eterna round: R97, puzzle: Sensor, turn-off variant 1)	75.2 nM	71.3 nM		
AAUACGUGAGGAUAUAGAUGAAGGAACUUGAGGAUCACCCAAGUGGCGUCUAGUUCCUGGCUAGAAGGCACAAAUA [Biedbe] (Eterna round: R97, puzzle: Exclusion 5)	263 nM	326 nM		
AAUAGUCGGUAGGAUAUCCACGGAUGACCGGCAGGAGAAGGGCCGACUUGAGGAUCACCCAAGUAUGGUCCUAA [Texeonxe] (Eterna round: R97, puzzle: Exclusion 6)	15.9 nM	14.5 nM		
AAUCCUGAAGUUAGGAUAUGAAGUAUCACUGCACUUCAGAAGGGACUUGAGGAUCACCCAAGUAGCCGUGAGGG [salish99_bmod_ex4_r4_001] (Eterna round: R97, puzzle: Brourd's mod of Exclusion 4)	161 nM	47.5 nM		
AAUCUGUGAGGAUAUGGUGAGUAGUGCCUGAGCGCUGCUCACCAGAAGGCACAUGAGGAUCACCCAUGUAUGAA [Mat - Exclusion 4 - Mod of JL - D3] (puzzle: Exclusion 4)			28 nM	
AAUGCCGGUGUCAGGAUAUCCGGAGGGAAACCUCCGGAGAAGGGACAUGAGGAUCACCCAUGUAUGUAACCUGC [AK-MS2ROC-r4-Bmoexclusion4-6] (Eterna round: R97, puzzle: Brourd's mod of Exclusion 4)	24.9 nM	22.2 nM		
AAUUAAGCAAGCAGAUCCCACAUGAGGAUCACCCAUGUGCUCGUCUUAUAAGGUACUGUGACGAGAGUCACGGUACC [Mat - Sensor, turn-off var - Eli Mod - D70] (Eterna round: R97, puzzle: Sensor, turn-off variant 1)	128 nM	97.1 nM		
AAUUAAUUAAUUAAUUAAUACAUGAGGAUCACCCAUGUAAUUUAAGAUCCUUAUACAAGCUUUGAUCUCGUAAUUAA [Stov1/4-A1] (Eterna round: R97, puzzle: Sensor, turn-off variant 1)	98.9 nM	93.8 nM		
AAUUACAAGCAAAGAUCUUACAUGAGGAUCACCCAUGUGCUCGUUUUAUAAAGUACUAUCACGAAAGUGAUAGUACA [Mat - Sensor v3 - turn-off var 1 - Eli Mod - D95] (puzzle: Sensor v3, turn-off variant 1)			90.9 nM	apparent KD of MS2 coat protein [2]: 29.9 nM; apparent KD of MS2 coat protein [4]: 26.3 nM
AAUUAGCUAGGAUAUACAUGAGGAUCACCCAUGUCAGUUACAUGGCCGGGUGUAACGAGUAGAAGGAGCGCCAA [EX3 B.28] (Eterna round: R97, puzzle: Exclusion 3)	175 nM	513 nM		
AAUUAUUUUUGAGGAUAUCGUGGUGAAACACCACGAGAAGGCGAGAUAAACAUGAGGAUCACCCAUGUGAGCCUGAUGCUUAUG [Ex NG1 #50] (Eterna round: R96, puzzle: Exclusion NG 1)				apparent KD of MS2 coat protein [1]: 18.1 nM
AAUUAUUUUUGAGGAUAUGGUGGUGAAACACCACCAGAAGGCGAAAUAAACAUGAGGAUCACCCAUGUGAGCCUGAUGCUUAUG [Ex NG1 #48] (Eterna round: R96, puzzle: Exclusion NG 1)				apparent KD of MS2 coat protein [1]: 19.9 nM
AAUUAUUUUUGAGGAUAUGGUGGUGAAACACCACCAGAAGGCGAGAUAAACAUGAGGAUCACCCAUGUGAGCCUGAUGCUUAUG [Ex NG1 #49] (Eterna round: R96, puzzle: Exclusion NG 1)	29.2 nM	17.2 nM		apparent KD of MS2 coat protein [1]: 12.6 nM
AAUUCACAUGAGGAUCACCCAUGUCAGGAUAUGGUUUCACGUUUUUCUUUGCUUGAGGCCAGAAGGGACAGCUA (puzzle: Exclusion 1)			54.2 nM	
